From patent US20170022287A1 (Chugai, published 2017)

Experiments:
CRD1 [1] = target: T1, CRD1; assay: ELISA, coated CD137-Fc protein 2 µg/mL, antibody 10 or 5 µg/mL, absorbance 620 nm; Non (uncoated well) 0.3465
T1 construct: also called fragmented human CD137-Fc fusion protein CRD1
Description: (§1) Fragmented human CD137-Fc fusion proteins were diluted to 2 μg/mL in an aqueous sodium carbonate solution adjusted to pH9.6. Fifty μL of a diluted fragmented human CD137-Fc fusion protein was added individually to each well of a Nunc MaxiSorp flat-bottom 96 well plate (Nunc). This was allowed to stand at 4° C. overnight or longer, and then the plate was allowed to stand at room temperature for one hour so that the plate has the same temperature as the room temperature. The solution containing the fragmented human CD137-Fc fusion protein was removed by tilting, and each well was washed three times with 300 μL of Wash buffer (TBS containing 0.1% Tween20, TaKaRa). Next, 150 μL of blocking buffer (TBS containing 2% BSA) was added to each well, and this was allowed to stand for one hour or more. The blocking buffer was removed by tilting, and each well was washed three times with Wash Buffer in a similar manner to an earlier step. Then, 50 μL of an antibody solution prepared in advance by dilution with TBS to 10 μg/mL or 5 μg/mL was added to each well. This was subjected to a speed of 600 rpm or so for one hour at room temperature to bind the antibody to the immobilized antigen. […] 100 μL of a secondary antibody solution produced by 1000-fold dilution with TBS containing 0.1% Tween20 was added to each well. For the secondary antibody, ANTIBODY ALKALINE PHOSPHATASE CONJUGATE HUMAN IMMUNOGLOBULIN ABSORBED Goat Anti-Human Kappa Alkaline Phosphate from BIOSOURCE was used in the case of antibodies carrying a Kappa chain, and Human Lambda Light Chain Antibody; Goat anti-Human Lambda Light Chain Antibody Alkaline Phosphatase Conjugated from BETHYL LABORATORIES INC. was used in the case of antibodies carrying a Lambda chain. […] Color development was performed using the BluePhos Microwell kit from KPL. After the chromogenic reaction was stopped using the AP stop solution from KPL, the absorbance was measured at 620 nm on an absorptiometer.

[2] = target: full-length human CD137-Fc fusion protein (human); assay: as above
Sequence of full-length human CD137-Fc fusion protein (human) (chain, as listed by the source limits assumed): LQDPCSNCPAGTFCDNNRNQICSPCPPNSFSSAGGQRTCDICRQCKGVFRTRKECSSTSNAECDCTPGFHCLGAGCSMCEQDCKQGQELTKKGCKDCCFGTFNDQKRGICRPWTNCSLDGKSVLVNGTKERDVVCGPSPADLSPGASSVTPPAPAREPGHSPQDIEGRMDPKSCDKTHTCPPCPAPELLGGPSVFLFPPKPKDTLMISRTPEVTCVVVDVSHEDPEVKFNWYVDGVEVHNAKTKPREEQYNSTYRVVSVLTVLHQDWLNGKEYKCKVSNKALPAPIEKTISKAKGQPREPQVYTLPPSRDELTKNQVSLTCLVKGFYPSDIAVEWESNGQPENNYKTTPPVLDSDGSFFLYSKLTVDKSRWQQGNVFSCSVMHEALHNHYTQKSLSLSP
Description: as §1

CRD1-2 [3] = target: T2, CRD1-2; assay: as above
T2 construct: also called fragmented human CD137-Fc fusion protein CRD1-2
T2 sequence (chain, as listed by the source limits assumed): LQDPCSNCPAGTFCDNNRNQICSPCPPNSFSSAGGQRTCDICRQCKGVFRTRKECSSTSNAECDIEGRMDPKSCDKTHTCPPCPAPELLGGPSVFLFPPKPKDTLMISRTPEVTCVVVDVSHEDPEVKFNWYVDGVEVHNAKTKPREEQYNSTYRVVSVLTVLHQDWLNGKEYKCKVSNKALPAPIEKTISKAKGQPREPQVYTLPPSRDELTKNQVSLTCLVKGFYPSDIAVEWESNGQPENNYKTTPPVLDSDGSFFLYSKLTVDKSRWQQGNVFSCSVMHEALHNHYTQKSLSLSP
Description: as §1

CRD3-4 [4] = target: T3, CRD3-4; assay: as above
T3 construct: also called fragmented human CD137-Fc fusion protein CRD3-4
T3 sequence (chain, as listed by the source limits assumed): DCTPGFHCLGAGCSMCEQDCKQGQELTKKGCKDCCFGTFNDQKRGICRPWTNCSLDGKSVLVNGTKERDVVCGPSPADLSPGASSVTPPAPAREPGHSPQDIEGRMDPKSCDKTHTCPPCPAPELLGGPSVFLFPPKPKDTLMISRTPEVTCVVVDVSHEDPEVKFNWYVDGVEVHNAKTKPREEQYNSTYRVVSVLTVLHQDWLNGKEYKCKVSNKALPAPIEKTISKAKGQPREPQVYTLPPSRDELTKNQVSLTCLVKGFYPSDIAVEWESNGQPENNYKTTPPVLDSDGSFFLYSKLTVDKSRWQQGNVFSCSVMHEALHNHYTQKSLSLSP
Description: as §1

CRD2-4 [5] = target: T4, CRD2-4; assay: as above
T4 construct: also called fragmented human CD137-Fc fusion protein CRD2-4
T4 sequence (chain, as listed by the source limits assumed): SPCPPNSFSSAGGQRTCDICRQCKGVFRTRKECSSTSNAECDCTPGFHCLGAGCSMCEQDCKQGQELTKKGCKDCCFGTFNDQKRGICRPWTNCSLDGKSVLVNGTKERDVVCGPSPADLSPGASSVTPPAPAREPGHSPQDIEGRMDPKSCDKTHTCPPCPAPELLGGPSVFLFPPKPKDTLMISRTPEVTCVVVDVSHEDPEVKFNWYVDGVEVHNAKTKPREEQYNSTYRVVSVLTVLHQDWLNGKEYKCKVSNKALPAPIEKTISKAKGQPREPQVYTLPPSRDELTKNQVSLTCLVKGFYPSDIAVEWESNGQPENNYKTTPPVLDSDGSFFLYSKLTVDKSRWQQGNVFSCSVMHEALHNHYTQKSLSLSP
Description: as §1

CRD1-3 [6] = target: T5, CRD1-3; assay: as above
T5 construct: also called fragmented human CD137-Fc fusion protein CRD1-3
T5 sequence (chain, as listed by the source limits assumed): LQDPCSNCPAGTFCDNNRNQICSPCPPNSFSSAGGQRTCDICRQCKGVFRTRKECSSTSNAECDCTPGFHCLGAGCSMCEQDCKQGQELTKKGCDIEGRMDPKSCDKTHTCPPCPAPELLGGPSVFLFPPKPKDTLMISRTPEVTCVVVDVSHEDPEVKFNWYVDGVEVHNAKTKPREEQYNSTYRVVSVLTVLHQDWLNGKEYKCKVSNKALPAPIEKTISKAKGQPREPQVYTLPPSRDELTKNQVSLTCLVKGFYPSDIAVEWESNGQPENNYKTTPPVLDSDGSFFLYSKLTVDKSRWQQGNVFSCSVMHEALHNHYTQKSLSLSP
Description: as §1

CRD2-3 [7] = target: T6, CRD2-3; assay: as above
T6 construct: also called fragmented human CD137-Fc fusion protein CRD2-3
T6 sequence (chain, as listed by the source limits assumed): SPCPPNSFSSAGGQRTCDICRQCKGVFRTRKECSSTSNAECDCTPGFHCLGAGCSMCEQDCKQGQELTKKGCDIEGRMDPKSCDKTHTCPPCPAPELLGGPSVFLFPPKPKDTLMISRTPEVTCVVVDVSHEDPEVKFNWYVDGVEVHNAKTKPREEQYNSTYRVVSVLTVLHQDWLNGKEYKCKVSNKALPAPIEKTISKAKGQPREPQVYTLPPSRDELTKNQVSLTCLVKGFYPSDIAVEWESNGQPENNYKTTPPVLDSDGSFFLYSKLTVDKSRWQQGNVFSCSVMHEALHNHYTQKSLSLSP
Description: as §1

CRD1 [8] = target: T1, CRD1; assay: ELISA, coated CD137-Fc protein 2 µg/mL, antibody 10 or 5 µg/mL; absorbance 620 nm divided by that of the uncoated well
Description: as §1

[9] = target: full-length human CD137-Fc fusion protein (human); assay: as above
Description: as §1

CRD1-2 [10] = target: T2, CRD1-2; assay: as above
Description: as §1

CRD3-4 [11] = target: T3, CRD3-4; assay: as above
Description: as §1

CRD2-4 [12] = target: T4, CRD2-4; assay: as above
Description: as §1

CRD1-3 [13] = target: T5, CRD1-3; assay: as above
Description: as §1

CRD2-3 [14] = target: T6, CRD2-3; assay: as above
Description: as §1

CRD1 [15] = target: T1, CRD1; assay: ELISA, coated CD137-Fc protein 2 µg/mL, antibody 10 or 5 µg/mL, absorbance 620 nm; Non (uncoated well) 0.166
Description: as §1

[16] = target: full-length human CD137-Fc fusion protein (human); assay: as above
Description: as §1

CRD1-2 [17] = target: T2, CRD1-2; assay: as above
Description: as §1

CRD3-4 [18] = target: T3, CRD3-4; assay: as above
Description: as §1

CRD2-4 [19] = target: T4, CRD2-4; assay: as above
Description: as §1

CRD1-3 [20] = target: T5, CRD1-3; assay: as above
Description: as §1

CRD2-3 [21] = target: T6, CRD2-3; assay: as above
Description: as §1

CRD1 [22] = target: T1, CRD1; assay: ELISA, coated CD137-Fc protein 2 µg/mL, antibody 10 or 5 µg/mL, absorbance 620 nm; Non (uncoated well) 0.065
Description: as §1

[23] = target: full-length human CD137-Fc fusion protein (human); assay: as above
Description: as §1

CRD1-2 [24] = target: T2, CRD1-2; assay: as above
Description: as §1

CRD3-4 [25] = target: T3, CRD3-4; assay: as above
Description: as §1

CRD2-4 [26] = target: T4, CRD2-4; assay: as above
Description: as §1

CRD2-3 [27] = target: T6, CRD2-3; assay: as above
Description: as §1

T1 sequence (chain, as listed by the source limits assumed): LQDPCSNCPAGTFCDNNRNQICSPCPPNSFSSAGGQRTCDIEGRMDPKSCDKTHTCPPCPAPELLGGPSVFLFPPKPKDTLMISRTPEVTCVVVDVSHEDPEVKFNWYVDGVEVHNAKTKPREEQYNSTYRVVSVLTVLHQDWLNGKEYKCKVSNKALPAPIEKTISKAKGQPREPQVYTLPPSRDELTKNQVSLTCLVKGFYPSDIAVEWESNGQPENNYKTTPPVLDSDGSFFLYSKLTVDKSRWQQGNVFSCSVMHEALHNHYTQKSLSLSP

Binder | Ratio with respect to Non-Coating (CRD1 [8]) | Ratio with respect to Non-Coating [9] | Ratio with respect to Non-Coating (CRD1-2 [10]) | Ratio with respect to Non-Coating (CRD3-4 [11]) | Ratio with respect to Non-Coating (CRD2-4 [12]) | Ratio with respect to Non-Coating (CRD1-3 [13]) | Ratio with respect to Non-Coating (CRD2-3 [14]) | further results
R18 (antibody, V domains shown, Synthetic library clone; Fab on phage in the phage ELISA) VH: not shown VL: DIQMTQSPSSLSASVGDRVTITCRASQSISSYLNWYQQKPGKAPKLLIYAASSLQSGVPSRFSGSGSGTDFTLTISSLQPEDFATYYCLQFNSFPLTFGGGTKVEIK | 1.2 | 5.8 | 1.2 | 7.7 | 6.6 | 6.6 | 7.2 | ELISA color development level (CRD1 [1]): 0.4; ELISA color development level [2]: 2.03; ELISA color development level (CRD1-2 [3]): 0.419; ELISA color development level (CRD3-4 [4]): 2.65; ELISA color development level (CRD2-4 [5]): 2.27; ELISA color development level (CRD1-3 [6]): 2.29; ELISA color development level (CRD2-3 [7]): 2.49
R17 (antibody, V domains shown, Synthetic library clone; Fab on phage in the phage ELISA) VH: not shown VL: DIQMTQSPSSLSASVGDRVTITCRASQSISSYLNWYQQKPGKAPKLLIYAASSLQSGVPSRFSGSGSGTDFTLTISSLQPEDFATYYCLQFTSFPLTFGGGTKVEIK | 1.2 | 8.1 | 1 | 14.9 | 11.6 | 12.4 | 14.7 | ELISA color development level (CRD1 [15]): 0.197; ELISA color development level [16]: 1.34; ELISA color development level (CRD1-2 [17]): 0.169; ELISA color development level (CRD3-4 [18]): 2.47; ELISA color development level (CRD2-4 [19]): 1.92; ELISA color development level (CRD1-3 [20]): 2.05; ELISA color development level (CRD2-3 [21]): 2.44
R1 (antibody, V domains shown, Naive library clone; Fab on phage in the phage ELISA) VH: EVQLVQSGAEVKKPGASVKVSCKASGYTFTSYYTHWVRQAPGQGLEWMGIINPSGGSTSYAQKFQGRVTMTRDTSTSTVYMELSSLRSEDTAVYYCARGAPEYSSSSDYWGQGTMVTVSS VL: QSALTQPASVSGSPGQSITISCTGTSSDVGGYNYVSWYQQHPGKAPKLMIYDVSNRPSGVSNRFSGSKSGNTASLTISGLQAEDEADYYCSSYTSSSTRWVFGGGTKLTVL | 1.9 | 27.6 | 13.3 | 1.3 | 1.4 |  | 1.8 | ELISA color development level (CRD1 [22]): 0.123; ELISA color development level [23]: 1.79; ELISA color development level (CRD1-2 [24]): 0.865; ELISA color development level (CRD3-4 [25]): 0.0875; ELISA color development level (CRD2-4 [26]): 0.0935; ELISA color development level (CRD2-3 [27]): 0.117
